Laboratory results taken from PMC9963277 (Proceedings of the National Academy of Sciences of the …, 2023).

B1: E. coli ClpX (containing a neutral K408E mutation) (enzyme)
chain: not shown

How the values were obtained:
[1] = biological target: B1; experiment: cryo-EM structure
cryo-EM structure = biological target: the molecule itself; experiment: cryo-EM structure

Row | Binder | binding result [1] | binding result (cryo-EM structure)
1 | E. coli SspB (natural protein) MDLSQLTPRRPYLLRAFYEWLLDNQLTPHLVVDVTLPGVQVPMEYARDGQIVLNIAPRAVGNLELANDEVRFNARFGGIPRQVSVPLAAVLAIYARENGAGTMFEPEAAYDEDTSIMNDEEASADNETVMSVIDGDKPDHDDDTHPDDEPPQPPRGGRPALRVVK | binds | 
2 | B1 |  | binds
3 | E. coli ClpP (enzyme) not shown | binds | binds
